The values that follow come from paper PMC12416549 (2024).

T1: TNFR1 (Homo sapiens, UniProt P19438)
T1 chain: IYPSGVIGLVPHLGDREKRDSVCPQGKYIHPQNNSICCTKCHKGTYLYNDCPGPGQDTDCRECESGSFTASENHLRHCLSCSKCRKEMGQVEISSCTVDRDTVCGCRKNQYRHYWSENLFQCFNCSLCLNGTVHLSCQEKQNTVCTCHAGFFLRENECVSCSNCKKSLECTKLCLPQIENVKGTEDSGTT

B1: E91I (designed binder)
chain: SMEEEVEKAAKEYEKKKKEAIEKHLEKLKAKDKEAAERFLKELEEAAKEYAKDEAKTMSEEEAKRRAKKYKEKVLLSELSEEEQKEIKEAIEKLVRTILKYVEEAAK
B2: K15S (designed binder)
chain: B1 chain with K15S, I91E
B3: Y101D (designed binder)
chain: B1 chain with I91E, Y101D
B4: K41I (designed binder)
chain: B1 chain with K41I, I91E
B5: K15I (designed binder)
chain: B1 chain with K15I, I91E
B6: K88V (designed binder)
chain: B1 chain with K88V, I91E
B7: E61C (designed binder)
chain: B1 chain with E61C, I91E
B8: L28K (designed binder)
chain: B1 chain with L28K, I91E
B9: K64T (designed binder)
chain: B1 chain with K64T, I91E
B10: R66E (designed binder)
chain: B1 chain with R66E, I91E
B11: K48D (designed binder)
chain: B1 chain with K48D, I91E
B12: E78W (designed binder)
chain: B1 chain with E78W, I91E
B13: A106Q (designed binder)
chain: B1 chain with I91E, A106Q
B14: K100M (designed binder)
chain: B1 chain with I91E, K100M
B15: H24A (designed binder)
chain: B1 chain with H24A, I91E
B16: L43R (designed binder)
chain: B1 chain with L43R, I91E
B17: E61R (designed binder)
chain: B1 chain with E61R, I91E
B18: M58L (designed binder)
chain: B1 chain with M58L, I91E
B19: E4C (designed binder)
chain: B1 chain with E4C, I91E
B20: I87M (designed binder)
chain: B1 chain with I87M, I91E
B21: A35W (designed binder)
chain: B1 chain with A35W, I91E
B22: E61I (designed binder)
chain: B1 chain with E61I, I91E
B23: E22N (designed binder)
chain: B1 chain with E22N, I91E
B24: A46R (designed binder)
chain: B1 chain with A46R, I91E
B25: E22M (designed binder)
chain: B1 chain with E22M, I91E
B26: K68G (designed binder)
chain: B1 chain with K68G, I91E
B27: A36S (designed binder)
chain: B1 chain with A36S, I91E
B28: K88W (designed binder)
chain: B1 chain with K88W, I91E
B29: A46V (designed binder)
chain: B1 chain with A46V, I91E
B30: E19V (designed binder)
chain: B1 chain with E19V, I91E
B31: A36F (designed binder)
chain: B1 chain with A36F, I91E
B32: E78R (designed binder)
chain: B1 chain with E78R, I91E
B33: K88Q (designed binder)
chain: B1 chain with K88Q, I91E
B34: E54T (designed binder)
chain: B1 chain with E54T, I91E
B35: E34A (designed binder)
chain: B1 chain with E34A, I91E
B36: E62G (designed binder)
chain: B1 chain with E62G, I91E
B37: E89H (designed binder)
chain: B1 chain with E89H, I91E
B38: D53V (designed binder)
chain: B1 chain with D53V, I91E
B39: R38N (designed binder)
chain: B1 chain with R38N, I91E
B40: S77W (designed binder)
chain: B1 chain with S77W, I91E
B41: L25V (designed binder)
chain: B1 chain with L25V, I91E
B42: K71Y (designed binder)
chain: B1 chain with K71Y, I91E
B43: E4K (designed binder)
chain: B1 chain with E4K, I91E
B44: K88E (designed binder)
chain: B1 chain with K88E, I91E
B45: L40E (designed binder)
chain: B1 chain with L40E, I91E
B46: M2A (designed binder)
chain: B1 chain with M2A, I91E
B47: E83T (designed binder)
chain: B1 chain with E83T, I91E
B48: K73W (designed binder)
chain: B1 chain with K73W, I91E
B49: E4D (designed binder)
chain: B1 chain with E4D, I91E
B50: V74E (designed binder)
chain: B1 chain with V74E, I91E
B51: E61F (designed binder)
chain: B1 chain with E61F, I91E
B52: Q84L (designed binder)
chain: B1 chain with Q84L, I91E
B53: K41V (designed binder)
chain: B1 chain with K41V, I91E
B54: Y70P (designed binder)
chain: B1 chain with Y70P, I91E
B55: E60G (designed binder)
chain: B1 chain with E60G, I91E

Residue numbers refer to the chain shown, from its start. Names and notes keep the numbering of the source.

The test deals with T1, TNFR1. The experiment in a line: yeast display SC50.
In the case of B1, the “apparent Kd (screen)” value stood at 7.78 nM.
As for B2, the “apparent Kd (screen)” value was determined as 0.653 nM.
Regarding B3, the “apparent Kd (screen)” value came out at 0.446 nM.
Turning to B4, the “apparent Kd (screen)” value stood at 0.539 nM.
In the case of B5, the “apparent Kd (screen)” value turned out to be 0.869 nM.
Turning to B6, the “apparent Kd (screen)” value worked out at 0.79 nM.
In the case of B7 it was 1.86 nM; in that of B8, 1.54 nM; in that of B9, 1.4 nM.
In the case of B10 it was 18.3 nM; in that of B11, 0.49 nM; in that of B12, 2.73 nM.
In the case of B13 it was 2.05 nM.
As to B14, the “apparent Kd (screen)” value turned out to be 1.05 nM.
In the case of B15 it was 1.05 nM; in that of B16, 13.8 nM.
In the case of B17 it was 2.48 nM; in that of B18, 2.73 nM.
The result for B19 reads 1.27 nM; that for B20, 10.4 nM.
Take B21: the “apparent Kd (screen)” value was 1.86 nM.
In the case of B22, the “apparent Kd (screen)” value was determined as 1.54 nM.
As to B23, the “apparent Kd (screen)” value turned out to be 0.869 nM.
Turning to B24, the “apparent Kd (screen)” value worked out at 1.54 nM.
In the case of B25 it was 0.539 nM; in that of B26, 1.27 nM.
In the case of B27 it was 1.05 nM; in that of B28, 0.49 nM.
Turning to B29, the “apparent Kd (screen)” value was found to be 2.48 nM.
In the case of B30 it was 0.446 nM; in that of B31, 1.27 nM.
The result for B32 reads 1.86 nM; that for B33, 0.49 nM.
The result for B34 reads 12.5 nM.
For B35, the “apparent Kd (screen)” value turned out to be 1.05 nM.
The result for B36 reads 2.25 nM; that for B37, 1.69 nM; that for B38, 12.5 nM.
The result for B39 reads 2.48 nM; that for B40, 1.05 nM.
In the case of B41 it was 1.27 nM.
On to B42, for which the “apparent Kd (screen)” value came out at 1.05 nM.
In the case of B43, the “apparent Kd (screen)” value was determined as 1.86 nM.
As to B44, the “apparent Kd (screen)” value came to 0.49 nM.
As for B45, the “apparent Kd (screen)” value is 0.49 nM.
B46: the “apparent Kd (screen)” value was determined as 0.49 nM.
In the case of B47 it was 0.49 nM.
On to B48, for which the “apparent Kd (screen)” value is 15.2 nM.
As for B49, the “apparent Kd (screen)” value was 0.446 nM.
Regarding B50, the “apparent Kd (screen)” value came to 0.304 nM.
In the case of B51 it was 0.718 nM; in that of B52, 2.48 nM; in that of B53, 0.446 nM.
In the case of B54 it was 5.31 nM; in that of B55, 1.54 nM.
